Data on 18 sequences can be found in the supplement of paper PMC9170038.

The test system of the data set is K4 kissing-loop RNA reporter. The data set can be described thus: apparent KD of K4 kissing-loop reporter; higher = weaker reporter binding. The note with it: Eterna round: R107. On the procedure:
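RNA-MaP round R107: designed RNA switches with theophylline, tryptophan, arginine or FMN aptamers are transcribed on-chip within common flanks. They are titrated with a labelled K4 kissing-loop RNA reporter in RNA-MaP buffer (100 mM Tris pH 7.5, 80 mM KCl, 4 mM MgCl2), without ligand or with the indicated ligand. Median apparent KD per design.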

Where [1] appears, read: input ligand: theophylline 20 uM.
The mark [2] stands for this setting: input ligand: tryptophan 2.4 mM.
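Note: bound reporter read as fluorescence of individual clusters on recovered sequencing chips by microscopy, with normalized cluster intensities fitted with a binding model.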

Consider “UGGGUUGGAAGUGAUGUUUCUCUAAGUGAUACCAGACAAAAGAAAGUCCCUUGGCAGCACAAUGAUGCCAAGGAAACGGCAUGAU [#16 K4 Theophylline A Same State]”, for which the “apparent KD of K4 kissing-loop reporter” value (input ligand: FMN 200 uM) came out at 229 nM; the “apparent KD of K4 kissing-loop reporter” value (input ligand: arginine 13.2 mM) turned out to be 244 nM; the “apparent KD of K4 kissing-loop reporter” value (input ligand: none) amounted to 260 nM; the “apparent KD of K4 kissing-loop reporter” value under setting [1] worked out at 250 nM; the “apparent KD of K4 kissing-loop reporter” value under setting [2] came to 195 nM.

Regarding “UGAUUUAACUGAAGGAGCGGCAAUUGAUAAGUAAAUAUAGUGAUGUUAUAUAAGAUAGAGAGCCAGGUAGGUCGCAGAGGUAUUU [ExArgB.N]”, the “apparent KD of K4 kissing-loop reporter” value is, setting by setting: (input ligand: FMN 200 uM) 173 nM; (input ligand: arginine 13.2 mM) 141 nM; (input ligand: none) 154 nM; under setting [1], 153 nM; under setting [2], 141 nM.

In the case of “GCUAGGCAUGCAGGAUAUCGCCGAGUGAUGUUCGGUAGGCCGCUUUCUUUCUUUCUUUGCGGCCAGCGAGAAGGGCAUGCCUAGC”, the “apparent KD of K4 kissing-loop reporter” value runs as follows: (input ligand: FMN 200 uM) 139 nM; (input ligand: arginine 13.2 mM) 112 nM; (input ligand: none) 108 nM; under setting [1], 68 nM; under setting [2], 118 nM.

On to “GCUACUGCUGAAGGAUAUAUCAAUAGAGUGAUGUUCUAUGUCGGUAGCCCGAAAGGGCUACCGACGAUAGAAGGUCAGCAGUAGC”, for which the “apparent KD of K4 kissing-loop reporter” value runs as follows: (input ligand: FMN 200 uM) 113 nM; (input ligand: arginine 13.2 mM) 1020 nM; (input ligand: none) 723 nM; under setting [1], 1070 nM; under setting [2], 983 nM.

Consider “UUUCGUUGAAGUGAUACCAGACUUGAAAGUGAUGUUUUCCAAUAAAUUAAAUUAUUAGCUGUCCCUUGGCAGCACAGUUUAUUUA [JR_ExcTheophyB_Sub006]”, for which the “apparent KD of K4 kissing-loop reporter” value worked out at 205 nM (input ligand: FMN 200 uM); 345 nM (input ligand: arginine 13.2 mM); 301 nM (input ligand: none); 389 nM under setting [1]; 186 nM under setting [2].

Take “UGUAUGUGAUUUGAUACCAGACCAGCUGGUGUUAGAUGAGUGAUGUUGAUCUAGGGUUGGGUCCCUUGGCAGCAAAUCGCAUACU [KL-SSTheoB22]”: the “apparent KD of K4 kissing-loop reporter” value amounted to 593 nM (input ligand: FMN 200 uM); 391 nM (input ligand: arginine 13.2 mM); 557 nM (input ligand: none); 435 nM under setting [1]; 463 nM under setting [2].

Regarding “GAUGAUCGCGCGGCCGCCACUGGUCAGUGAUGUUGACAUUAAUGCGCCGAGUAGUAACGGCGCAGUAGGACCGGGCGCGAUGUAG [#13 K4 Tryptophan B Same State]”, the “apparent KD of K4 kissing-loop reporter” value is, setting by setting: (input ligand: FMN 200 uM) 151 nM; (input ligand: arginine 13.2 mM) 139 nM; (input ligand: none) 139 nM; under setting [1], 198 nM; under setting [2], 110 nM.

“UGCGCUAUGUCCUAAAAUGUCCUCCGGGAUACCAGAGUCUUUUUAUUCCCUUGGCAGCUUGAGUGAUGUUUGAUGCCGUUCUUGU [nnbvmullin]”: the “apparent KD of K4 kissing-loop reporter” value worked out at 708 nM (input ligand: FMN 200 uM); 294 nM (input ligand: arginine 13.2 mM); 551 nM (input ligand: none); 355 nM under setting [1]; 415 nM under setting [2].

As for “GAUUAAUAAGAGGAUACCAGUACUAAUAAAGUACAUUAAUAGUAGAGUGAUGUUCUAAAGUACCCUUGGCAGCUUAGAGUAAGUU [#08 K4 Theophylline B Exclusion]”, the “apparent KD of K4 kissing-loop reporter” value is 128 nM (input ligand: FMN 200 uM); 224 nM (input ligand: arginine 13.2 mM); 157 nM (input ligand: none); 226 nM under setting [1]; 97.5 nM under setting [2].

As for “CCAGCAAAGCUGGUCGCCAAACAACGGGCACGAGGACCGGUACGGCCGCCACUCGUGAGGACGAGUGAUGUUCGUUCACGGGCGA”, the “apparent KD of K4 kissing-loop reporter” value by setting is: (input ligand: FMN 200 uM) 815 nM; (input ligand: arginine 13.2 mM) 587 nM; (input ligand: none) 1690 nM; under setting [1], 602 nM; under setting [2], 302 nM.

“AGGAUGUAGUGAUGUUAUAUAAGAAGUAAACGAGGACCGGUACGGCCGCCACUCGAAGCGGCUACUAGCGCGCCGCGAGGCGCGC [ExTryptoA.Cb]”: the “apparent KD of K4 kissing-loop reporter” value was 370 nM (input ligand: FMN 200 uM); 391 nM (input ligand: arginine 13.2 mM); 958 nM (input ligand: none); 361 nM under setting [1]; 358 nM under setting [2].

With “ACGAUCAUGGCAGGAUAUACGAAUGCAUUAGGGCUGCCAGUGAUGUUGGUGGACCGAGGACGUAGAGUAGAAGGGCCGACUUAAA [Leonmain]”, the “apparent KD of K4 kissing-loop reporter” value amounted to 138 nM (input ligand: FMN 200 uM); 169 nM (input ligand: arginine 13.2 mM); 139 nM (input ligand: none); 86.4 nM under setting [1]; 157 nM under setting [2].

With “CCAGGACGAUGAGGAUGAUGAAUUACUGAAGGAGCGCAUAUGGUUGCAGGUAGGUCGCGGUGAACAAGUAUAGUGAUGUUAUGCC [SSArgA.V]”, the “apparent KD of K4 kissing-loop reporter” value reads like this: (input ligand: FMN 200 uM) 704 nM; (input ligand: arginine 13.2 mM) 424 nM; (input ligand: none) 693 nM; under setting [1], 519 nM; under setting [2], 631 nM.

In the case of “CCGGGCGGCCGAAGGAGCGGGCGGACCCGAGUGAUGUUCGGGUGGACCGUGAGGUCCGGUGCCCAGGUAGGUCGCGGUUCCGUCC [#2 Same State - Arginine B Attempt #6 (HarryS)]”, the “apparent KD of K4 kissing-loop reporter” value runs as follows: (input ligand: FMN 200 uM) 200 nM; (input ligand: arginine 13.2 mM) 101 nM; (input ligand: none) 159 nM; under setting [1], 97.5 nM; under setting [2], 121 nM.

Regarding “ACACAGAGUUGCCGAGUGAUGUUCGGCUUACGAGGACCGGUACGGCCGCCACUCGUUACUCUGUGUUUUGGACACCAAGGCGUAG [Edvemaquan]”, the “apparent KD of K4 kissing-loop reporter” value is, setting by setting: (input ligand: FMN 200 uM) 565 nM; (input ligand: arginine 13.2 mM) 492 nM; (input ligand: none) 675 nM; under setting [1], 497 nM; under setting [2], 169 nM.

Turning to “AGAUCUGUAACAGAUACCAGAGGACGAUGAUCGGACAGUGAUGUUAUCUGUCAGUCGUCGCUCCCUUGGCAGCUGUUACAGAUCA [Omei KL Theo B SS B v3]”, the “apparent KD of K4 kissing-loop reporter” value was 78.1 nM (input ligand: FMN 200 uM); 43.1 nM (input ligand: arginine 13.2 mM); 73.7 nM (input ligand: none); 94.9 nM under setting [1]; 65.2 nM under setting [2].

With “UGAUUAAGCAGUGAUGUUGCAAGUAAUGAUACCAGUUAAGAAGAGAACCCUUGGCAGCAUAAAGUGCGCUCUGAUGAGUGUGCUU [whbob_SS_Theo_A_w53]”, the “apparent KD of K4 kissing-loop reporter” value reads like this: (input ligand: FMN 200 uM) 101 nM; (input ligand: arginine 13.2 mM) 153 nM; (input ligand: none) 123 nM; under setting [1], 169 nM; under setting [2], 95.6 nM.

As to “UUUUAAUAAAAGGAUACCAGUACAAAUAAAGUACAUUAAUAGUAGAGUGAUGUUCUAAAGUACCCUUGGCAGCUUAGAGUAAGUU [#17 K4 Theophylline B Exclusion]”, the “apparent KD of K4 kissing-loop reporter” value runs as follows: (input ligand: FMN 200 uM) 120 nM; (input ligand: arginine 13.2 mM) 253 nM; (input ligand: none) 160 nM; under setting [1], 228 nM; under setting [2], 85.1 nM.
